According to the supplement of paper PMC12764529:
± gives the half width of the 95% confidence interval.

Assays:
[1] = folding stability dG unfold (combined trypsin and chymotrypsin); higher = more stable
Procedure, shortened: (§1)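 Mini-proteins designed to be under 80 residues and free of cysteine were carried in a PA-tagged cDNA display construct and digested with trypsin and with chymotrypsin. Each protease was applied at 11 threefold-diluted concentrations, alongside a no-protease condition, before sequencing. K50 came from Bayesian fitting of the sequencing counts, and unfolding free energy was obtained by comparing it with a sequence-predicted unfolded-state K50 and a shared folded-state K50, for each protease separately or for both together. Designs were retained only if their AlphaFold2 dimer inter-PAE exceeded 15.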

[2] = folding stability dG unfold from trypsin proteolysis; higher = more stable
Procedure, shortened: as §1

[3] = folding stability dG unfold from chymotrypsin proteolysis; higher = more stable
Procedure, shortened: as §1

SAGGEGEILDKKEFTFPDNVKLEVYVFKVGDKYFVKVKTTITVPENPTKPKKPLKKITPEDIKKALEKSAGG [r13_760_TrMRF]
folding stability dG unfold [1]: 1.5 ± 0.5 kcal/mol
folding stability dG unfold [2]: 0.151 ± 0.33 kcal/mol
folding stability dG unfold [3]: 1.88 ± 0.21 kcal/mol

SAGGSMTIVVETPEEVEKAIKALEDELKKKGIKKGDKIKKIKVEKNENGKLTVTIEVDGKKIKIEVSAGGSA [r2_120_TrROS_Hall]
folding stability dG unfold [1]: 1.63 ± 0.3 kcal/mol
folding stability dG unfold [2]: 0.37 ± 0.15 kcal/mol
folding stability dG unfold [3]: 2.02 ± 0.25 kcal/mol

SMKIEVSGGNVTVEMYMWRRKKERDPDDPGKERDQPEPMPQTHTIDPNDPEAAKKFLDKFPPGFRPEIHDSA [r9_476_TrROS]
folding stability dG unfold [1]: 0.446 ± 0.25 kcal/mol
folding stability dG unfold [2]: 0.594 ± 0.19 kcal/mol
folding stability dG unfold [3]: 0.0896 ± 0.43 kcal/mol

SAGGKKVIVIEGLTEEEILEKIKEEFPEPVEVIIRRPDGYVVKITVDAKTREIKKVEVVKVPPPEKPSAGGS [r8_225_TrROS_Hall]
folding stability dG unfold [1]: 1.79 ± 0.29 kcal/mol
folding stability dG unfold [2]: 1.57 ± 0.15 kcal/mol
folding stability dG unfold [3]: 2.01 ± 0.16 kcal/mol

SAGGSAGGWIPVEELAKEFGFSPDFIEQLMKNGYKIEYEYHEPGWVRLSVENPDNGKKREITFPSAGGSAGG [r6_969_TrROS]
folding stability dG unfold [1]: 1.92 ± 0.053 kcal/mol
folding stability dG unfold [2]: 1.43 ± 0.022 kcal/mol
folding stability dG unfold [3]: 2.183 ± 0.019 kcal/mol

SAGGMGSEKLPLTLTLPGDRKLEVTVYRVGDKLYVEIKLTHGSKPLGTLTVEADSLDEVLDAAKEAASAGGS [r16_55_TrMRF]
folding stability dG unfold [1]: 3.28 ± 0.15 kcal/mol
folding stability dG unfold [2]: 2.77 ± 0.15 kcal/mol
folding stability dG unfold [3]: 3.58 ± 0.062 kcal/mol

SAGGSAGGSAGGKKIKILVKIKDLKKLKGLKPGDLALIEIEVEVKPEKKTEKKYTYKKKSAGGSAGGSAGGS [r10_1233_TrROS_Hall]
folding stability dG unfold [1]: 0.693 ± 0.21 kcal/mol
folding stability dG unfold [2]: 0.432 ± 0.23 kcal/mol
folding stability dG unfold [3]: 0.908 ± 0.29 kcal/mol

SMTIEGMSPREAVRNIIEEFIEMFEANGNPPMPIKIRFPGNGKPIYEFPIQSKEQLLDQIENGVPVSIEFSA [r9_718_TrROS]
folding stability dG unfold [1]: 0.183 ± 0.1 kcal/mol
folding stability dG unfold [2]: 0.604 ± 0.027 kcal/mol
folding stability dG unfold [3]: -0.498 ± 0.18 kcal/mol

SAGGMPVVKVTLRVELPETGETVDVTLYVDPSVPEEYLERLVRRVAEEVARLLRLPPPPVPPRPDELSAGGS [r16_191_TrMRF]
folding stability dG unfold [1]: 3.52 ± 0.095 kcal/mol
folding stability dG unfold [2]: 3.29 ± 0.12 kcal/mol
folding stability dG unfold [3]: 3.64 ± 0.057 kcal/mol

SAGGSAGLTLTFGDKEITLTPNPDTDTFTGTYPDGKPFTFKLTDDELYITYPDGTKEKIPLKDIKNSAGGSA [r15_448_TrMRF]
folding stability dG unfold [1]: 1.54 ± 0.21 kcal/mol
folding stability dG unfold [2]: 1.58 ± 0.066 kcal/mol
folding stability dG unfold [3]: 1.42 ± 0.17 kcal/mol

SIVIRLPDGKPLMIQLTMYYPPDNDKIEIPVEIYDGGKPRTFEHEIPPGDNKPVTFSLHIPLPPGAYIKISA [r9_973_TrROS]
folding stability dG unfold [1]: 2.38 ± 0.23 kcal/mol
folding stability dG unfold [2]: 2.17 ± 0.12 kcal/mol
folding stability dG unfold [3]: 2.45 ± 0.14 kcal/mol

SAGGSAGGSAGKPLKVKKFEVELLVRDPETNRWYRIRAEVYRVEGLPDLFIIKLEIEELPSAGGSAGGSAGG [r11_1029_TrROS_Hall]
folding stability dG unfold [1]: 4.6 ± 0.11 kcal/mol
folding stability dG unfold [2]: 3.96 ± 0.12 kcal/mol
folding stability dG unfold [3]: 4.82 ± 0.099 kcal/mol

SAGLLEVLRKIAEELGWELTSVEVHELPDGSVVATGEFRKGDRTYRVDIRYDPETGRVEVRLEPVPVPESAG [r14_784_TrMRF]
folding stability dG unfold [1]: > 6 kcal/mol
folding stability dG unfold [2]: 4.6 ± 0.22 kcal/mol
folding stability dG unfold [3]: 5.51 ± 0.2 kcal/mol

SAGGELVLLSESESVFTSPDGSRTVVRTLLTERPGDLLVEITTTTTIEPESGAVTTTTTTRVLPRRESAGGS [r8_264_JUSTAS]
folding stability dG unfold [1]: 2.8 ± 0.038 kcal/mol
folding stability dG unfold [2]: 2.33 ± 0.043 kcal/mol
folding stability dG unfold [3]: 3.021 ± 0.013 kcal/mol

SGSMTLVSESTVPEKGTTLLTLKFPNGAPATVTLNPDGSSTTTFPATGLPFTVTVGSGTLTVTTPAALALSA [r9_233_JUSTAS]
folding stability dG unfold [1]: 1.23 ± 0.18 kcal/mol
folding stability dG unfold [2]: 1.01 ± 0.1 kcal/mol
folding stability dG unfold [3]: 1.42 ± 0.12 kcal/mol

SAGMVKITVPSSVGPVDPSKALTFEKDDTRYILVPGEVAKEIEEKYPDLPIEIEPMSEEEAEKILKELSAGG [r19_271_JUSTAS]
folding stability dG unfold [1]: 0.258 ± 0.41 kcal/mol
folding stability dG unfold [2]: -0.0536 ± 0.2 kcal/mol
folding stability dG unfold [3]: 0.624 ± 0.16 kcal/mol

SAGGSAMLRVFEKEHPGPFSITVLAGPGLSEEEIEELAEKLAEKKIEIEKKKIELEKKGKKPIFKKSAGGSA [r15_704_JUSTAS]
folding stability dG unfold [1]: 0.0936 ± 0.43 kcal/mol
folding stability dG unfold [2]: 0.327 ± 0.21 kcal/mol
folding stability dG unfold [3]: 0.235 ± 0.43 kcal/mol

MEITITETENGYRVEVKIEITVIDPKTGEPVPLEIPVEAFVPASDPDPEKAAKEAAEKALEEVLKALPEGLS [r1_414_JUSTAS]
folding stability dG unfold [1]: 1.99 ± 0.19 kcal/mol
folding stability dG unfold [2]: 2.33 ± 0.21 kcal/mol
folding stability dG unfold [3]: 1.88 ± 0.091 kcal/mol

SAGGSAGGSAGGGIKIKIISVKPLPDGSVLVKAKIIFPDGKEKEILILFNKNGEIKIFEKSAGGSAGGSAGG [r7_860_TrMRF]
folding stability dG unfold [1]: 3.71 ± 0.087 kcal/mol
folding stability dG unfold [2]: 3.04 ± 0.11 kcal/mol
folding stability dG unfold [3]: 4.03 ± 0.069 kcal/mol

SAKKAEEIAEKVEKTIKEAAKEKGYDVNIKVKATKGKDGKVTVYIDFDSPENAKEFIEKLPKSVNVVIASAG [r14_491_TrMRF]
folding stability dG unfold [1]: 1.41 ± 0.11 kcal/mol
folding stability dG unfold [2]: 1.3 ± 0.052 kcal/mol
folding stability dG unfold [3]: 1.42 ± 0.059 kcal/mol

SAGGSAGGSAGVSFVVDALFVDPNTNEVYHGHIEFYDDGTAKITLTNQNGKTKTFTFPVLFSAGGSAGGSAG [r3_61_TrMRF]
folding stability dG unfold [1]: 3.01 ± 0.19 kcal/mol
folding stability dG unfold [2]: 2.73 ± 0.14 kcal/mol
folding stability dG unfold [3]: 3.25 ± 0.049 kcal/mol
